Data as given in patent publication US20150239980A1 (NEOTOPE BOSCIENCES, published 2015).
Blank lines part the entries; values can stand above or below the binder they belong to.

Legend:
recombinant hMCAM-His [1] = target: T1, recombinant hMCAM-His (human, UniProt P43121 24-559); experiment: competitive ELISA on hMCAM-His, competitor biotinylated rodent or chimeric 2107; Expt. #1; vs rodent 2107
T1 construct: not shown: His tag
T1 chain: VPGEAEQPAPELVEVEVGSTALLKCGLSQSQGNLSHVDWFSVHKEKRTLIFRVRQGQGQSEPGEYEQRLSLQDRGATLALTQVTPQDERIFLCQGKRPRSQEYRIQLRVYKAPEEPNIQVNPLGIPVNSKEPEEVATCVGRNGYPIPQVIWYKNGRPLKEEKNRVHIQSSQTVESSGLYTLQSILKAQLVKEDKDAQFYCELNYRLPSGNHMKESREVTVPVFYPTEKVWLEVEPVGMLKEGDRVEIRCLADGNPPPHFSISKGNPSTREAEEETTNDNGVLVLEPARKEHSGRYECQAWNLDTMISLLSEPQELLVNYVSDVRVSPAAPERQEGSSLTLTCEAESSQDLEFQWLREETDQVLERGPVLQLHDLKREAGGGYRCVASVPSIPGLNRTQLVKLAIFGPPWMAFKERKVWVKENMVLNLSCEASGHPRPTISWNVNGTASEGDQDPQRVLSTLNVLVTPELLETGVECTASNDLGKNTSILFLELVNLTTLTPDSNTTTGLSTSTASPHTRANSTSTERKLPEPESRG
Outline: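 Plates coated with recombinant hMCAM-His and casein-blocked; biotinylated rodent or chimeric antibody at subsaturating level competed by 3× serial concentrations of unlabeled humanized, rodent or chimeric antibody. Bound biotinylated antibody detected with streptavidin-HRP/TMB at OD450; competitor IC50 fitted.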

recombinant hMCAM-His [2] = target: T1, recombinant hMCAM-His; experiment: competitive ELISA on hMCAM-His, competitor biotinylated rodent or chimeric 2107; Expt. #2; vs rodent 2107
Experimental: (§1) ELISA plates were coated with recombinant hMCAM-His, and blocked with casein buffer to prevent non-specific binding. Biotinylated rodent or chimeric antibody was added at a subsaturating concentration, in the presence or absence of 3× increasing concentrations of unlabeled competitor (humanized antibody, rodent, or chimeric). After washing to remove unbound antibody, streptavidin HRP was added to allow detection of the biotinylated antibody. The ELISA was developed with TMB substrate and the OD450 was measured. The IC50 of the unlabeled competitor was determined using the GraphPad Prism5 software.

[3] = target: T2, human MCAM (melanoma cell adhesion molecule) expressed on transfected CHO cells (human, UniProt P43121 24-646); experiment: laminin/FACS on hMCAM CHO cells, competitor laminin 411; Expt#2; seems to serve as the reference of the 2107 family in this column
T2 construct: also called hMCAM; CD146
T2 chain: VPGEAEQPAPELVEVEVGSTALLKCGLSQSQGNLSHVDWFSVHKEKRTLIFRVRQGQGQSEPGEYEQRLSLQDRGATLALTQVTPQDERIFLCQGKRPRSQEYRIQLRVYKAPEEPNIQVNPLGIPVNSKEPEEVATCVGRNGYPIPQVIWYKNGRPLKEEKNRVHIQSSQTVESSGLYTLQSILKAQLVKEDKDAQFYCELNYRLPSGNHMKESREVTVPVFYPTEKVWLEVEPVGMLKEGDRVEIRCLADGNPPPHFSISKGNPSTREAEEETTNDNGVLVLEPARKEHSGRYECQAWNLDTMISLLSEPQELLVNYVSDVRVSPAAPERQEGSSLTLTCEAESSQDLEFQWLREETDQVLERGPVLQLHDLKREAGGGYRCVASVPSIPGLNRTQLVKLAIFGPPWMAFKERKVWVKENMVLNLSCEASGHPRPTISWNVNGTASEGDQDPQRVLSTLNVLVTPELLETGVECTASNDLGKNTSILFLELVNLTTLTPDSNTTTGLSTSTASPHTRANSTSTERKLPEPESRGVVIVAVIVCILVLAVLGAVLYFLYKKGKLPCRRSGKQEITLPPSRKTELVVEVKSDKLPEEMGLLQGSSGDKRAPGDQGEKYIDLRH

recombinant hMCAM-His [4] = target: T1, recombinant hMCAM-His; experiment: competitive ELISA on hMCAM-His, competitor biotinylated rodent or chimeric 2120; vs rodent 2120
Experimental: as §1

recombinant hMCAM-His [5] = target: T1, recombinant hMCAM-His; experiment: summary of ForteBio and competitive ELISA on hMCAM-His; vs rodent 2120
Experimental: as §1
(§2) The affinities were measured using the ForteBio Octet Red. Anti-human Fc sensors were used to capture the humanized antibodies, and several concentrations of hMCAMHis analyte were used to determine the affinity using a 1:1 fitting model.

[6] = target: T2, human MCAM (melanoma cell adhesion …); experiment: laminin/FACS blocking assay, % inhibition of laminin 411 binding to hMCAM-expressing CHO cells against antibody concentration; blocked ligand: laminin 411
Experimental: (§3) Following incubation for 30-45 minutes, the cells were washed and anti-laminin conjugated to AF650 (NovusBio) was added to detect the bound laminin. The cells were run on a flow cytometer to measure the laminin binding signal.

recombinant hMCAM-His [7] = target: T1, recombinant hMCAM-His; experiment: ForteBio Octet Red, hMCAM-His analyte; Forte column 2; vs rodent 2120
Experimental: as §2

recombinant hMCAM-His [8] = target: T1, recombinant hMCAM-His; experiment: ForteBio Octet Red, hMCAM-His analyte; Forte column 1; vs rodent 2120
Experimental: as §2

[9] = target: T2, human MCAM (melanoma cell adhesion …); experiment: laminin/FACS on hMCAM CHO cells, competitor laminin 411; Expt#2; vs rodent 2120
Experimental: as §3

[10] = target: T2, human MCAM (melanoma cell adhesion …); experiment: summary of laminin blocking assay on hMCAM CHO cells, competitor laminin 411; vs rodent 2120
Experimental: as §3

[11] = target: T2, human MCAM (melanoma cell adhesion …); experiment: laminin/FACS on hMCAM CHO cells, competitor laminin 411; Expt#1; vs rodent 2120
Experimental: as §3

[12] = target: T3, Recombinant human laminin-α4 (R&D systems) (human, UniProt Q16363-2 826-1816); experiment: SPR, Biacore T200, Fc-tagged MCAM IgG1-2A captured by anti-Fc, laminin-α4 as analyte, 1:1 model
T3 construct: also called laminin α-4 chain
T3 sequence (looked up): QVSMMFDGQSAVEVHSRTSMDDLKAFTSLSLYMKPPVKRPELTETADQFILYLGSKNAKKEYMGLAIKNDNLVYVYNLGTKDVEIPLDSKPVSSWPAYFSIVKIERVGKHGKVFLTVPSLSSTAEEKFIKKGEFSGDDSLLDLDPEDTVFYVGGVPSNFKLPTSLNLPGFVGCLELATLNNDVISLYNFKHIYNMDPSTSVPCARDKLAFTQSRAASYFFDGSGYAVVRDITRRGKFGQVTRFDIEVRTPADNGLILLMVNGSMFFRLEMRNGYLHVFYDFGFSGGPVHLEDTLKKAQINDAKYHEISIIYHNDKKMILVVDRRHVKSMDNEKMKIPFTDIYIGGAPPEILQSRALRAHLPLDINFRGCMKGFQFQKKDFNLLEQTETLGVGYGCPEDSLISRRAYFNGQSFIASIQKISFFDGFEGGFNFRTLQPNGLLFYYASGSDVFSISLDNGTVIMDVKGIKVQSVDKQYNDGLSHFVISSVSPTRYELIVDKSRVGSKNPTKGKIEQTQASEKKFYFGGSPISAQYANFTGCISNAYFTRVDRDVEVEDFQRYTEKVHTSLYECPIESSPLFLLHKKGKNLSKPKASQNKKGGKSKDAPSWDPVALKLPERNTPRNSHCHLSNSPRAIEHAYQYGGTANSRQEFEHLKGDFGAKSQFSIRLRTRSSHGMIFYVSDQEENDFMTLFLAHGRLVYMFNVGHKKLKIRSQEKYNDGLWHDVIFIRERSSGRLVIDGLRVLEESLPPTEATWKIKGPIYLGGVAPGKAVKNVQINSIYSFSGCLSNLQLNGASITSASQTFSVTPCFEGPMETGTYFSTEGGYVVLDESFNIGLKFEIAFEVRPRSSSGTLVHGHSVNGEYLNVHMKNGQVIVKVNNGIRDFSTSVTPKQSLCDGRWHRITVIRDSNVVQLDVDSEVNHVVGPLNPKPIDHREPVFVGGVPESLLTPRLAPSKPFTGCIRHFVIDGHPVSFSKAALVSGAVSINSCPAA
Experimental: (§4) The binding affinity of the human laminin-α4 to human MCAM IgG1-2A was measured by Surface Plasmon Resonance on a Biacore T200 machine. Human Fc-specific F(ab′)₂ IgG (Jackson Laboratories) was immobilized on a CM5 chip using amine coupling. The four flow cells of the CM5 chips dextran surface are activated by a 7 min injection of freshly prepared 1:1 50 mM NHS: EDC at a flow rate of 5 μl/min. 70 μl IgG solution (pH 4.5) was injected for 3 min to a density of up to 3 000 RU. The coupling is then blocked by a 7 min injection of 1M ethanolamine to deactivate residual reactive sites. Recombinant human Fc-tagged MCAM IgG1-2A in degassed and filtered HBS-P buffer containing 12 mg/ml BSA and 12 mg/ml carboxy-methylated dextran sodium salt was captured by anti-Fc IgG to a capture level 1560 RU. Recombinant human Fc-tagged MCAM IgG1-2A was centrifuged at 14 000 rpm for 5 min at 4° C. before injection for 20 min at a flow rate of 5 μl/min over the anti-Fc IgG containing surface. Flow cell 1 was left free of IgG to serve as a control surface. One flow cell was used to capture recombinant human IgG1 Fc (R&D systems) to serve as a negative control. […] Buffer injections served as negative control. Data evaluation: Data from the buffer injections and the control surface were subtracted to remove artifacts. […]

[13] = target: T4, recombinant human laminin 411 (Biolamina) (human, UniProt Q16363 25-1823; P07942 22-1786; P11047 34-1609); experiment: SPR, Biacore T200, Fc-tagged MCAM IgG1-2A captured by anti-Fc, laminin 411 as analyte, steady state
T4 construct: also called laminin 8
T4 sequence (P07942 22-1786, chain 2 of 2): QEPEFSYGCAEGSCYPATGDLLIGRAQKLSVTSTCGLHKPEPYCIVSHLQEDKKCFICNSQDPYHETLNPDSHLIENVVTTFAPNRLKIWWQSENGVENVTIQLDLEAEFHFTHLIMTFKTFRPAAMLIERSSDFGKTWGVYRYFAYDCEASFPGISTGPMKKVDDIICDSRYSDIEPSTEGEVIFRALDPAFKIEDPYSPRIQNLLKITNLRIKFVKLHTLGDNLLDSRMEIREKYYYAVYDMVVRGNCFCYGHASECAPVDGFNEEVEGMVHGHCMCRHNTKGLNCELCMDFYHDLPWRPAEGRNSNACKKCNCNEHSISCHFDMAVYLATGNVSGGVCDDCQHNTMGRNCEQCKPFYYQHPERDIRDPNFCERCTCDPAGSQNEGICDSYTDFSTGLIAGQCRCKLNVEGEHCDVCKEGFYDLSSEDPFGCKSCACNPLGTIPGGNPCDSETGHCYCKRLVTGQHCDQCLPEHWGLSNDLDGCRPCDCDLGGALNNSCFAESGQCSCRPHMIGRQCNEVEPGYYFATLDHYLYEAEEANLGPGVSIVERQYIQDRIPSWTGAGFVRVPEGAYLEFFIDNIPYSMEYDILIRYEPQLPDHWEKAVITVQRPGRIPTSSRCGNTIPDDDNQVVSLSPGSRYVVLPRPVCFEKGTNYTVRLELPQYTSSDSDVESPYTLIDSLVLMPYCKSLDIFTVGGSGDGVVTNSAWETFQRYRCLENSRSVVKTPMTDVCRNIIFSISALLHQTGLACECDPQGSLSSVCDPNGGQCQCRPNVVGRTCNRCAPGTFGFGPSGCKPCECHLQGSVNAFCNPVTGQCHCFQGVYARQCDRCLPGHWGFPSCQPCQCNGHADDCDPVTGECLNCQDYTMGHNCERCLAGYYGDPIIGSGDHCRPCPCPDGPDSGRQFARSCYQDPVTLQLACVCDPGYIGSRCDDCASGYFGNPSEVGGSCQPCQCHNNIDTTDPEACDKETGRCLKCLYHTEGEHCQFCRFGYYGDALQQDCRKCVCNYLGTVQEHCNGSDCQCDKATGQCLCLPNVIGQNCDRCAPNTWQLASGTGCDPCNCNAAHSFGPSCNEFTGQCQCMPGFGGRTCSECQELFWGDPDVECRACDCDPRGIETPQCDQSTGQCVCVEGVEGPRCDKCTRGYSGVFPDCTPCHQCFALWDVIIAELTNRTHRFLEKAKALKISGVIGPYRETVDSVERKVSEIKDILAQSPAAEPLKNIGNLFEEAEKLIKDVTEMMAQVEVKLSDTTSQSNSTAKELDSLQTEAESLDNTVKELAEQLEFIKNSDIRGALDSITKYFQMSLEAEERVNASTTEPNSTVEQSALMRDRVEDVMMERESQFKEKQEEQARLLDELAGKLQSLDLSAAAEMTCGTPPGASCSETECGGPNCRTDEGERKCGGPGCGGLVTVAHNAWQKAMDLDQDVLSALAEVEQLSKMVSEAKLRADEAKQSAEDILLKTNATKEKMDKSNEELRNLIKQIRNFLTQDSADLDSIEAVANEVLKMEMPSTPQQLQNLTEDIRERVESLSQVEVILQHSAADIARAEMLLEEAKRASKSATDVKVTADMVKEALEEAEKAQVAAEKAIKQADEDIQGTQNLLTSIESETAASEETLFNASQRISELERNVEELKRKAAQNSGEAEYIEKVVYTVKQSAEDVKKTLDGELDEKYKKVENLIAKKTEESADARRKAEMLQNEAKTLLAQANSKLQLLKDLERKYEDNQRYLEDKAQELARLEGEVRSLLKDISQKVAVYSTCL
T4 sequence (P11047 34-1609, chain 3 of 2): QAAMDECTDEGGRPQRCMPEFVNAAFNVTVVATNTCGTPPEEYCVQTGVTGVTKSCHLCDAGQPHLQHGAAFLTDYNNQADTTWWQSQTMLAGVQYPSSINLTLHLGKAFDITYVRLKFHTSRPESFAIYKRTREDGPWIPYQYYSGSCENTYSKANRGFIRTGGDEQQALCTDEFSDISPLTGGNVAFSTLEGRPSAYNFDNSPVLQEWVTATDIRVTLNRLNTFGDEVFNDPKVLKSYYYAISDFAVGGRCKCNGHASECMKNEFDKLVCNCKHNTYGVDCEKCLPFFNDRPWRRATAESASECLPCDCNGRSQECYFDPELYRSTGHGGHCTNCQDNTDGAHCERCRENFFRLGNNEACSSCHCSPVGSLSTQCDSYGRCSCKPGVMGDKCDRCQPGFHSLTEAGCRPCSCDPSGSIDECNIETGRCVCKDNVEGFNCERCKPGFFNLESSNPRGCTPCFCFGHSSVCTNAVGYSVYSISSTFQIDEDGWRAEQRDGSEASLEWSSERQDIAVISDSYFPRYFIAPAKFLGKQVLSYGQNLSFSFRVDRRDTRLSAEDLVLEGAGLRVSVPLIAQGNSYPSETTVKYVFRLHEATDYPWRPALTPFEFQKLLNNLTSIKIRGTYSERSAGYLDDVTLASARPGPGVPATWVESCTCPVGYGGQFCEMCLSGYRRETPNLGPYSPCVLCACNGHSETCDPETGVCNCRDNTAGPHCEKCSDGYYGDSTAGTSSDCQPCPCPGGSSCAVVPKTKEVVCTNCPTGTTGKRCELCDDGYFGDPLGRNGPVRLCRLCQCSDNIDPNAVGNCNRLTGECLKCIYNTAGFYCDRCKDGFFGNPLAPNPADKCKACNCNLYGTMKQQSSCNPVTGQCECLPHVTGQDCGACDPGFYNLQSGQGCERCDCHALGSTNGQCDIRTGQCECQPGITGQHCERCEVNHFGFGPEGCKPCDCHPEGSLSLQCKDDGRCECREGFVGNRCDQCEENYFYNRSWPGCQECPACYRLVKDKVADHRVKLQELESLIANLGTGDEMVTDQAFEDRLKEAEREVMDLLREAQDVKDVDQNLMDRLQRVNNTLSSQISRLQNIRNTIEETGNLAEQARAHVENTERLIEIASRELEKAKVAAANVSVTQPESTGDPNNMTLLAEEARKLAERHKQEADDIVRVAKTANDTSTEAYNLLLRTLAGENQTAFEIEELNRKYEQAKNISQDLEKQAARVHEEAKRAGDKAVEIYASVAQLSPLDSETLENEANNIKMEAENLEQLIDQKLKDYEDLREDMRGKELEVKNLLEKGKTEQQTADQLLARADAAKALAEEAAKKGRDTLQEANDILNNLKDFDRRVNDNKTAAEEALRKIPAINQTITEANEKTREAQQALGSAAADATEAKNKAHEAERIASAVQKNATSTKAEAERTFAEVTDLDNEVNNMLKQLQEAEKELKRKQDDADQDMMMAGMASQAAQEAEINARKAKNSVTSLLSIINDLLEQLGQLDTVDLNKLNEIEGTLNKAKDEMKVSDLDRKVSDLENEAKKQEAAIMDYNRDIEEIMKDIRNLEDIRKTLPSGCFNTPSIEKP
Experimental: as §4

[14] = target: T5, recombinant human laminin 511 (Biolamina) (human, UniProt O15230 36-3695; P07942 22-1786; P11047 34-1609); experiment: SPR, Biacore T200
T5 construct: negative control; also called laminin 10 (α5β1γ1)

fold over rodent (competitive ELISA) (recombinant hMCAM-His [1]): 0.68 fold
fold over rodent (competitive ELISA) (recombinant hMCAM-His [2]): 1.01 fold
fold over rodent (blocking, laminin/FACS) [3]: 1 fold
B1: chimeric 2107 (antibody, V domains shown)
VH: QVQLKESGPGLVQSSQTLSLTCTVSGFSLTSNGVSWVRQPPGKGLEWIAAISSGGSTYYNSAFKSRLSISRNTSKSQVLLKMNSLQTEDTGMYFCARHRPFYFDYWGQGVMVTVSS
VL: DIQVTQSPSLLSASVGDRVTLNCKGSQNIYKSLAWFRLKRGEAPKLLIYDANSLQTGIPSRFSGSGSGTDFTLTITSLQPEDVATYFCQQYYSGYTFGAGTKLELK

fold over rodent (competitive ELISA) (recombinant hMCAM-His [4]): 2.4 fold
fold reduction in affinity compared to the rodent (recombinant hMCAM-His [5]): < 2 fold
IC50 (read off the curve) [6]: ~0.6 µg/mL
fold over rodent (Forte affinity) (recombinant hMCAM-His [7]): 1.2 fold
fold over rodent (Forte affinity) (recombinant hMCAM-His [8]): 1.1 fold
fold over rodent (blocking, laminin/FACS) [9]: 1.5 fold
fold reduction in potency compared to the rodent [10]: < 2 fold
fold over rodent (blocking, laminin/FACS) [11]: 1.2 fold
B2: h2120_VH5 + h2120_VL3 (antibody, human IgG1, V domains shown)
VH: QVTLKESGPVLVKPTETLTLTCTVSGFSLTSNAVSWVRQPPGKALEWIAAISSGGTTYYNSAFKSRLTISRDTSKSQVVLTMTNMDPVDTATYYCARRYGYGWYFDFWGQGTLVTVSS
VL: DIQMTQSPSSLSASVGDRVTINCKASQNIYNSLAWYQQKPGKAPKVLIFNANSLQTGIPSRFSGSGSGTDFTLTISSLQPEDFATYYCQQFYSGYTFGQGTKLEIK
notes: also called h2120VH5VL3; VH5VL3

Kd [12]: 60 nM
Kd [13]: 66 nM
binding result [14]: no binding (tested: 5-175 nM)
B3: Recombinant human Fc-tagged MCAM IgG1-2A (human MCAM domains 1 and 2, amino acids 19-242) (Fc fusion)
chain: PRVAGVPGEAEQPAPELVEVEVGSTALLKCGLSQSQGNLSHVDWFSVHKEKRTLIFRVRQGQGQSEPGEYEQRLSLQDRGATLALTQVTPQDERIFLCQGKRPRSQEYRIQLRVYKAPEEPNIQVNPLGIPVNSKEPEEVATCVGRNGYPIPQVIWYKNGRPLKEEKNRVHIQSSQTVESSGLYTLQSILKAQLVKEDKDAQFYCELNYRLPSGNHMKESREVT
notes: also called human MCAM IgG1-2A; MCAM Fc domains 1 and 2; not shown: human Fc tag
